According to patent US20220017622A1 (Pfizer, published 2022):
Positions count from the first letter of the chain named. Numbers in names are those of the source.

Assays:
[1] = biological target: T1, human B7-H4 extracellular domain (human, UniProt Q7Z7D3 29-258); experiment: SPR Biacore 8K 25 C; mAb captured on anti-human Fc, huB7-H4 ECD analyte, 1:1 fit;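 further: antibodies tested as IgG1, running buffer HBS-EP+ at pH 7.4, rate constants and affinity from a 1:1 Langmuir model fit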
T1 construct: For SPR it says only human B7-H4 ECD; also called Hu B7-H4 ECD; huB7-H4 ECD
T1 sequence: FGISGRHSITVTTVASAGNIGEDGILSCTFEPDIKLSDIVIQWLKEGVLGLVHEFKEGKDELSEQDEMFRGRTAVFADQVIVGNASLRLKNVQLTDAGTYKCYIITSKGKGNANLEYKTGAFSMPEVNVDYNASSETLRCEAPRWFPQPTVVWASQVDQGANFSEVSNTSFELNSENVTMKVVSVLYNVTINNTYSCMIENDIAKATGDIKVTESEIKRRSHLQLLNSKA

[2] = biological target: T1, human B7-H4 extracellular domain; experiment: competition ELISA on coated huB7-H4 ECD; competitor biotinylated 0052 (by series, not given); second value of the fourth IC50 column
[3] = biological target: T1, human B7-H4 extracellular domain; experiment: competition ELISA on coated huB7-H4 ECD; competitor biotinylated 0052 (by series, not given); first of the four IC50 [nM] columns; competitor not given
[4] = biological target: T2, cynomolgus CD3 on cells from cynomolgus PBMCs (cynomolgus, UniProt Q95LI5 22-198; Q95LI8 22-171); experiment: flow cytometry on cyno PBMC, 37 C
T2 construct: whole, on cells; also called Cyno PBMC

[5] = biological target: T3, human CD3 on primary human T cells (human, UniProt P07766 23-207; P04234 22-171); experiment: flow cytometry on primary human T cells, 37 C
T3 construct: whole, on cells; On cells the whole CD3/TCR complex is present

[6] = biological target: T4, human CD3 (delta/epsilon heterodimer) (human, UniProt P07766 23-126; P04234 22-105); experiment: SPR 37 C; CD3 delta/epsilon on anti-His chip, bispecific analyte
T4 construct: captured on an anti-His chip, so it carries a His tag; also called huCD3

[7] = biological target: T5, cyno CD3 (delta/epsilon heterodimer) (cyno, UniProt Q95LI5 22-117; Q95LI8 22-105); experiment: as above
T5 construct: also called cyCD3

[8] = biological target: T4, human CD3 (delta/epsilon heterodimer); experiment: SPR 37 C; CD3 delta/epsilon on anti-His chip, bispecific (stable CHO) analyte
[9] = biological target: T5, cyno CD3 (delta/epsilon heterodimer); experiment: as above
[10] = biological target: T4, human CD3 (delta/epsilon heterodimer); experiment: SPR 37 C; CD3 delta/epsilon on anti-His chip, bispecific (transient expi293) analyte
[11] = biological target: T5, cyno CD3 (delta/epsilon heterodimer); experiment: as above
human B7-H4 on cells = biological target: T6, human B7-H4 on cells (human, UniProt Q7Z7D3 25-282); experiment: cell-based or functional assay
T6 sequence (looked up): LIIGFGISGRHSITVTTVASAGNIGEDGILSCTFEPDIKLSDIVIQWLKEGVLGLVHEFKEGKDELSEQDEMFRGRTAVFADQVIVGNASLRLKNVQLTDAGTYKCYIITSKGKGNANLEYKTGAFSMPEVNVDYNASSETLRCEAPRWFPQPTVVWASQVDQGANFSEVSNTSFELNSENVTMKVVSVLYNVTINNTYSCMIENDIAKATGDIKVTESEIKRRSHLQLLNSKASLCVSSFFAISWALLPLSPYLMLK

[12] = biological target: T7, human B7-H4 extracellular domain (human, UniProt Q7Z7D3 29-258); experiment: SPR 37 C; bispecific (IgG1 scaffold) on anti-hFc chip, ECD analyte
T7 construct: Soluble ECD used as SPR analyte; also called huB7-H4 ECD; huB7-H4
T7 sequence: T1 sequence

[13] = biological target: T4, human CD3 (delta/epsilon heterodimer); experiment: SPR 37 C; CD3 delta/epsilon on anti-His chip, bispecific (IgG1 scaffold) analyte

T4 sequence (P07766 23-126, stated change not applied, chain 1 of 2): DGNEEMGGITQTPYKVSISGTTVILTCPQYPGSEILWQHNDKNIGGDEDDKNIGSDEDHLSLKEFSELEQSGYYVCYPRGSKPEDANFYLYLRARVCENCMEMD
T4 sequence (P04234 22-105, stated change not applied, chain 2 of 2): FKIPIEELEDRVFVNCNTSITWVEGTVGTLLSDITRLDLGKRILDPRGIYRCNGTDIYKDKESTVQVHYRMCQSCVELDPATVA
T5 sequence (Q95LI5 22-117, stated change not applied, chain 1 of 2): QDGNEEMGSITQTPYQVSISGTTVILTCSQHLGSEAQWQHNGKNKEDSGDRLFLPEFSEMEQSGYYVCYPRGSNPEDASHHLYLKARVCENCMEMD
T5 sequence (Q95LI8 22-105, stated change not applied, chain 2 of 2): as the sequence (P04234 22-105, stated change not applied, chain 2 of 2) above, with I5V, N15K, I20V, S32T, D33N, I34N, T64A, S74N, V83L counted along it
T3 sequence (P07766 23-207, chain 1 of 2): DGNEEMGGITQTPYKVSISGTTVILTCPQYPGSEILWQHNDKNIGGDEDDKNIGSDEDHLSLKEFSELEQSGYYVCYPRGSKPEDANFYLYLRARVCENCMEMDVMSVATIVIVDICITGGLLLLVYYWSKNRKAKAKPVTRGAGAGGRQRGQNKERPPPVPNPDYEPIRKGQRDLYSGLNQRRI
T3 sequence (P04234 22-171, chain 2 of 2): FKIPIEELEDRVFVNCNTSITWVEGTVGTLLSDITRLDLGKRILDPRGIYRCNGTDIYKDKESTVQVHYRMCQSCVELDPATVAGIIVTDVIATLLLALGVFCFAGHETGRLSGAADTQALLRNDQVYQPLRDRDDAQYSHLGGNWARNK
T2 sequence (Q95LI5 22-198, chain 1 of 2): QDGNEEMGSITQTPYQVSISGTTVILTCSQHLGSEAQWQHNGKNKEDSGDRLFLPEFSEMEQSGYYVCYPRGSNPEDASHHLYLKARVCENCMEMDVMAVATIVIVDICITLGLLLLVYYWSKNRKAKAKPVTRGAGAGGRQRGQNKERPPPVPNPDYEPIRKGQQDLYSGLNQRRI
T2 sequence (Q95LI8 22-171, chain 2 of 2): as the sequence (P04234 22-171, chain 2 of 2) above, with I5V, N15K, I20V, S32T, D33N, I34N, T64A, S74N, V83L, H141R counted along it

B1: B7-H4 antibody 0047 (antibody, human IgG1, kappa, V domains shown)
VH: QVQLQQWGAGLLKPSETLPLTCAVYGGSFSGYYWNWIRQPPGKGLEWIGEINHSGSATYNPSLKSRVTISVDTSKNHFSLKLSSVTAADTAVYFCARGLYNWNVDHWGQGTLVTVSS
VL: DIQMTQSPSSLSASVGDRVTITCRASQGIRNDLGWYQQKPGKAPKRLIYAASSLQSGVPSRFSGSGSGTEFTLTISSLQPEDFATYYCLQHNSYPRTFGGGTKVEIKR
notes: also called 7H7
Kd [1]: 3.79 nM
koff [1]: 0.000635 s⁻¹
kon [1]: 168000 M⁻¹ s⁻¹
IC50 [2]: 1 nM
IC50 [3]: 4.8 nM

B2: B7-H4xCD3 bispecific antibody 1167 (bispecific antibody)
heavy 1: EVQLLESGGGLVQPGGSLRLSCAASGFTFSSYAMSWVRQAPGKGLEWVSAISGGGGSTYYADSVKGRFTISRDNSKNTLYLQMNSLRAEDTAVYYCARDIQWYGESTLFDYWGQGTLVTVSSASTKGPSVFPLAPCSRSTSESTAALGCLVKDYFPEPVTVSWNSGALTSGVHTFPAVLQSSGLYSLSSVVTVPSSNFGTQTYTCNVDHKPSNTKVDKTVERKCEVECPECPAPPVAGPSVFLFPPKPKDTLMISRTPEVTCVVVAVSHEDPEVQFNWYVDGVEVHNAKTKPREEQFNSTFRVVSVLTVVHQDWLNGKEYKCKVSNKGLPSSIEKTISKTKGQPREPQVYTLPPSREEMTKNQVSLTCEVKGFYPSDIAVEWESNGQPENNYKTTPPMLDSDGSFFLYSKLTVDKSRWQQGNVFSCSVMHEALHNHYTQKSLSLSPGK
light 1: DIQMTQSPSSLSASVGDRVTITCRASQSTRSHLAWYQQKPGKAPKLLIYKASSLEGGVPSRFSGSGSGTDFTLTISSLQPEDFATYYCQQYGSYSRTFGQGTKVEIKRTVAAPSVFIFPPSDEQLKSGTASVVCLLNNFYPREAKVQWKVDNALQSGNSQESVTEQDSKDSTYSLSSTLTLSKADYEKHKVYACEVTHQGLSSPVTKSFNRGEC
heavy 2: EVQLVESGGGLVQPGGSLRLSCAASGFTFSDYYMTWVRQAPGKGLEWVAFIRNQARGYTSDHNPSVKGRFTISRDNAKNSLYLQMNSLRAEDTAVYYCARDRPSYYVLDYWGQGTTVTVSSASTKGPSVFPLAPCSRSTSESTAALGCLVKDYFPEPVTVSWNSGALTSGVHTFPAVLQSSGLYSLSSVVTVPSSNFGTQTYTCNVDHKPSNTKVDKTVERKCRVRCPRCPAPPVAGPSVFLFPPKPKDTLMISRTPEVTCVVVAVSHEDPEVQFNWYVDGVEVHNAKTKPREEQFNSTFRVVSVLTVVHQDWLNGKEYKCKVSNKGLPSSIEKTISKTKGQPREPQVYTLPPSREEMTKNQVSLTCLVKGFYPSDIAVEWESNGQPENNYKTTPPMLDSDGSFFLYSRLTVDKSRWQQGNVFSCSVMHEALHNHYTQKSLSLSPGK
light 2: DIQMTQSPSSLSASVGDRVTITCTSSQSLFNVRSQKNYLAWYQQKPGKAPKLLIYWASTRESGVPSRFSGSGSGTDFTLTISSLQPEDFATYYCKQSYDLFTFGGGTKVEIKRTVAAPSVFIFPPSDEQLKSGTASVVCLLNNFYPREAKVQWKVDNALQSGNSQESVTEQDSKDSTYSLSSTLTLSKADYEKHKVYACEVTHQGLSSPVTKSFNRGEC
notes: Chains 1-2: B7-H4 arm; chains 3-4: CD3 arm; Full-length chains; IgG2 dA D265A EEE/RRR
EC50 [4]: 46 nM
EC50 [5]: 64 nM
Kd [6]: 63.5 nM
koff [6]: ~0.0337 s⁻¹
kon [6]: 531000 M⁻¹ s⁻¹
Kd [7]: 66.8 nM
koff [7]: ~0.0338 s⁻¹
kon [7]: 506000 M⁻¹ s⁻¹
Kd [8]: 49.8 nM
koff [8]: 0.0317 s⁻¹
kon [8]: 638000 M⁻¹ s⁻¹
Kd [9]: 58.8 nM
koff [9]: 0.0305 s⁻¹
kon [9]: 519000 M⁻¹ s⁻¹
Kd [10]: 62.5 nM
koff [10]: 0.0309 s⁻¹
kon [10]: 499000 M⁻¹ s⁻¹
Kd [11]: 70.8 nM
koff [11]: 0.0317 s⁻¹
kon [11]: 449000 M⁻¹ s⁻¹

B3: B7-H4xCD3 bispecific antibody 0089 (bispecific antibody, IgG1)
heavy 1: QVQLQQWGAGLLKPSETLSLTCAVYGGSFSGYYWNWIRQPPGKGLEWIGEINHSGSTKYNPSLKSRVTISGDTSKNQFSLKLNSVTAADTAVYYCVRGLYNWNVDSWGQGTLVTVSSASTKGPSVFPLAPSSKSTSGGTAALGCLVKDYFPEPVTVSWNSGALTSGVHTFPAVLQSSGLYSLSSVVTVPSSSLGTQTYICNVNHKPSNTKVDKKVEPKSCEKTHTCPECPAPEAAGAPSVFLFPPKPKDTLMISRTPEVTCVVVDVSHEDPEVKFNWYVDGVEVHNAKTKPREEQYNSTYRVVSVLTVLHQDWLNGKEYKCKVSNKALPAPIEKTISKAKGQPREPQVYTLPPSREEMTKNQVSLTCEVKGFYPSDIAVEWESNGQPENNYKTTPPVLDSDGSFFLYSKLTVDKSRWQQGNVFSCSVMHEALHNHYTQKSLSLSPG
light 1: DIQMTQSPSSLSASVGDRVTITCRASQGIRNDLGWYQQKPGKAPKRLIYVASSLQSGVPSRFSGSGSGTEFTLTISSLQPEDFATYYCLQHNSYPYTFGQGTKLEIKRTVAAPSVFIFPPSDEQLKSGTASVVCLLNNFYPREAKVQWKVDNALQSGNSQESVTEQDSKDSTYSLSSTLTLSKADYEKHKVYACEVTHQGLSSPVTKSFNRGEC
heavy 2: EVQLVESGGGLVQPGGSLRLSCAASGFTFSDYYMTWVRQAPGKGLEWVAFIRNQARGYTSDHNPSVKGRFTISRDNAKNSLYLQMNSLRAEDTAVYYCARDRPSYYVLDYWGQGTTVTVSSASTKGPSVFPLAPSSKSTSGGTAALGCLVKDYFPEPVTVSWNSGALTSGVHTFPAVLQSSGLYSLSSVVTVPSSSLGTQTYICNVNHKPSNTKVDKKVEPKSCRKTHTCPRCPAPEAAGAPSVFLFPPKPKDTLMISRTPEVTCVVVDVSHEDPEVKFNWYVDGVEVHNAKTKPREEQYNSTYRVVSVLTVLHQDWLNGKEYKCKVSNKALPAPIEKTISKAKGQPREPQVYTLPPSREEMTKNQVSLTCLVKGFYPSDIAVEWESNGQPENNYKTTPPVLDSDGSFFLYSRLTVDKSRWQQGNVFSCSVMHEALHNHYTQKSLSLSPG
light 2: B2 light 2
notes: Chains 1-2: B7-H4 arm; chains 3-4: CD3 arm; IgG1 EEE/RRR scaffold
T cell mediated tumor cell killing EC50, HCC1954-Luc (human B7-H4 on cells): 75 nM
T cell mediated tumor cell killing, MDA-MB-468 (human B7-H4 on cells): 45
Kd [12]: 22.3 nM
koff [12]: 0.00588 s⁻¹
kon [12]: 264000 M⁻¹ s⁻¹
Kd [13]: 40 nM
koff [13]: 0.026 s⁻¹
kon [13]: 653000 M⁻¹ s⁻¹

B4: B7-H4xCD3 bispecific antibody 1156 (bispecific antibody, IgG2)
heavy 1: EVQLVESGGGLVQPGGSLRLSCAVSGGSFSGYYWNWVRQAPGKGLEWIGEINHSGSATYNPSLKSRVTISVDTAKNSLYLQMNSLRAEDTAVYYCARGLYNWNVDHWGQGTLVTVSSASTKGPSVFPLAPCSRSTSESTAALGCLVKDYFPEPVTVSWNSGALTSGVHTFPAVLQSSGLYSLSSVVTVPSSNFGTQTYTCNVDHKPSNTKVDKTVERKCEVECPECPAPPVAGPSVFLFPPKPKDTLMISRTPEVTCVVVAVSHEDPEVQFNWYVDGVEVHNAKTKPREEQFNSTFRVVSVLTVVHQDWLNGKEYKCKVSNKGLPSSIEKTISKTKGQPREPQVYTLPPSREEMTKNQVSLTCEVKGFYPSDIAVEWESNGQPENNYKTTPPMLDSDGSFFLYSKLTVDKSRWQQGNVFSCSVMHEALHNHYTQKSLSLSPGK
light 1: B3 light 1 with V50A, E70D, S93A, Y96R, Q100G, L104V
heavy 2: B2 heavy 2
light 2: B2 light 2
notes: as for B2
EC50 [4]: 27 nM
EC50 [5]: 44.8 nM
Kd [6]: 62.4 nM
koff [6]: ~0.0339 s⁻¹
kon [6]: 543000 M⁻¹ s⁻¹
Kd [7]: 68.8 nM
koff [7]: ~0.0341 s⁻¹
kon [7]: 496000 M⁻¹ s⁻¹
